According to patent US20090311283A1:

Legend:
HLA-A*2401 (human) = assay: competition with a 125I-labelled probe peptide for purified HLA, gel filtration; binding relative to the standard peptide
HLA-A*0301 (human) = assay: competition with 125I-labelled probe peptide for purified HLA, gel filtration; value relative to standard peptide

HBV ENV 177 10-mer peptide […] (peptide; other documents disagree on this pair)
binding affinity ratio (IC50 of standard peptide / IC50 of test peptide) (HLA-A*0201 (human)): 0.0011

HBV ENV 177 8-mer peptide […] (peptide; other documents disagree on this pair)
binding affinity ratio (IC50 of standard peptide / IC50 of test peptide) (HLA-A*0201 (human)): 0.0019

HBV ENV 362 peptide WYWGPSLY
binding affinity ratio (IC50 of standard peptide / IC50 of test peptide) (HLA-A*2401 (human)): 0.0001

HBV POL 377 LWDFSQF (peptide)
binding affinity ratio (IC50 of standard peptide / IC50 of test peptide) (HLA-A*0301 (human)): 0.0016

[…] (HBV ENV 249, 15-mer) (peptide; other documents disagree on this pair)
binding affinity ratio (IC50 of standard peptide / IC50 of test peptide) (HLA-DRB1*1101 (human)): 0.0018 | binding affinity ratio (IC50 of standard peptide / IC50 of test peptide) (HLA-DRB1*0401 (human)): 0.032 | binding affinity ratio (IC50 of standard peptide / IC50 of test peptide) (HLA-DRB5*0101 (human)): 0.0069 | binding affinity ratio (IC50 of standard peptide / IC50 of test peptide) (HLA-DRB1*0101 (human)): 0.0026 | binding affinity ratio (IC50 of standard peptide / IC50 of test peptide) (HLA-DRB1*0701 (human)): 0.0047

HBV ENV 177 9-mer peptide […] (peptide; other documents disagree on this pair)
binding affinity ratio (IC50 of standard peptide / IC50 of test peptide) (HLA-A*0201 (human)): 0.066
